{"source": "paper PMC8359418", "about": "“Genome‐wide analysis of in vivo CcpA binding with and without its key co‐factor HPr in the major human pathogen group A Streptococcus” (Molecular Microbiology, 2020)", "key": {"[1]": {"target": "recombinant wild type GAS CcpA (catabolite control protein A) (group A Streptococcus (Streptococcus pyogenes))", "test": "SPR; CcpA (3,700 RU) or CcpAV301A (4,200 RU) immobilised on CM5 by amine coupling; HPr or HPrSer46~P injected, 2-fold dilutions 1.25 to 80 uM; PBS pH 7.4, 25°C; steady-state responses fitted to a one-site binding model; BIAcore T200"}, "[2]": {"target": "recombinant GAS CcpA with V301A change (group A Streptococcus (Streptococcus pyogenes))", "test": "SPR; CcpA (3,700 RU) or CcpAV301A (4,200 RU) immobilised on CM5 by amine coupling; HPr or HPrSer46~P injected, 2-fold dilutions 1.25 to 80 uM; PBS pH 7.4, 25°C; steady-state responses fitted to a one-site binding model; BIAcore T200"}, "[3]": {"target": "T1, CcpA endogenous in GAS strain MGAS2221 (Streptococcus pyogenes (endogenous in …, UniProt Q9A118 1-333))", "T1 construct": "Catabolite control protein A (CcpA) of Streptococcus pyogenes serotype emm1 strain MGAS2221 (gene content identical to MGAS5005); also called wild type CcpA; source: endogenous, lysate of cross-linked MGAS2221 cells", "test": "co-IP; GAS strains grown to mid-exponential phase in THY, cross-linked with EGS and formaldehyde, sonicated; precipitated with polyclonal anti-CcpA antibody, Western blot with anti-HPr antibody, quantified (Odyssey)", "details": "partners not purified"}}, "data": [{"molecule": "recombinant GAS HPr (histidine-containing protein), unphosphorylated (natural protein)", "values": [{"measurement": "Kd", "setting": "[1]", "value": 188, "unit": "µM"}]}, {"molecule": "recombinant GAS HPr phosphorylated at Ser46 (natural protein)", "values": [{"measurement": "Kd", "setting": "[1]", "value": 5.8, "unit": "µM"}, {"measurement": "Kd", "setting": "[2]", "value": 153, "unit": "µM"}]}, {"molecule": "HPr endogenous in GAS strains MGAS2221 and 2221-CcpA-V301A (natural protein, Phosphocarrier protein HPr (ptsH) of Streptococcus pyogenes serotype emm1 strain MGAS2221 and its isoallelic derivative; Detected with an anti-HPr antibody; the phosphorylation state of the co-precipitated HPr was not determined (by Phos-tag gels most cellular HPr was unphosphorylated); also called HPr~P; source: endogenous, lysates of cross-linked MGAS2221 and 2221-CcpA-V301A cells) MASKDFHIVAETGIHARPATLLVQTASKFASDITLDYKGKAVNLKSIMGVMSLGVGQGADVTISAEGADAEDAIAAIEETMTKEGLA", "values": [{"measurement": "fold more HPr co-immunoprecipitated than from strain 2221-CcpA-V301A", "setting": "[3]", "value": 10, "unit": "fold"}]}]}
